Assay [1] deals with A3B4 subunit of glycinin accumulated in transgenic soybean seeds (post-translationally processed mature form) (Glycine max (soybean)). In words: SEC; soluble extract of dry mature transgenic seeds on a Hi-Load 16/600 Superdex 200 pg column in potassium phosphate buffer (35 mM potassium phosphate, pH 7.6, 0.4 M NaCl), 1.0 mL/min; fractions analysed by SDS-PAGE and western blot with anti-A3B4 serum; size by comparison with molecular weight standards. A general note: In gel filtration, larger molecules generally elute earlier.

Assay [2] addresses recombinant luminal domain of GmVSR (soybean vacuolar sorting receptor) (Glycine max (soybean)). In words: SPR; GmVSR(LU) amine-coupled on a CM5 chip (1000-1200 RU), BIACORE2000; GST fusion proteins injected 180 s, eluted with salt buffer 180 s, 25 °C, 30 uL/min; control flow cell subtracted; three independent experiments. For orientation: Surface plasmon resonance follows binding to a sensor surface in real time, without labels.

Experimental findings from paper PMC5773536 are described below.

As to “A3B4 subunit of glycinin accumulated in transgenic soybean seeds (post-translationally processed mature form) (natural protein)”, the stoichiometry N (in general, a count of units in the complex or per binding partner) in assay [1] amounted to 6.

B1: GST fused with the 10-residue C-terminal peptide of A1aB1b (peptide)
chain: PQESQKRAVA
In the case of B1, in assay [2], the dissociation constant (Kd) (in general, the free concentration of one partner at which half of the binding sites on the other are occupied at equilibrium, for simple one-to-one binding) stood at 98 nM.
